These results are taken from US20150065436A1, “INHIBITING INTERACTION BETWEEN HIF-1ALPHA AND p300/CBP WITH HYDROGEN BOND SURROGATE-BASED HELICES” (UNIVERSITY OF SOUTHERN CALIFORNIA, priority 2013, published 2015).

code X = not defined here

The target of assay [1] is p300-CH1 (cysteine-histidine rich 1 domain of human coactivator protein p300, amino acid residues 323-423) (human), Q09472. As to the kind of experiment: tryptophan (Trp403) fluorescence spectroscopy, peptide titrated into 1 µM 15N-labeled p300-CH1.
In assay [2] the target is coactivator protein p300 (or the homologous CREB binding protein, CBP) (human), Q09472. As to the kind of experiment: cell-based or functional assay.
Assay [3] addresses p300-CH1 (cysteine-histidine rich 1 domain of human coactivator protein p300, amino acid residues 323-423) (human) (UniProt Q09472). Nature of the assay: tryptophan fluorescence spectroscopy; reference peptide 3.
The target is the same in assay [4]. As to the kind of experiment: tryptophan (Trp403) fluorescence spectroscopy, peptide titrated into 1 µM 15N-labeled p300-CH1.
For assay [5] the target is unchanged. Nature of the assay: fluorescence polarization competition; HBS 1 added to preformed complex of 300 nM p300-CH1 and 15 nM Flu-HIF C-TAD. On the technique in general: Polarisation of emitted light reports the rotation of a fluorescent probe.
Assay [6] concerns the target coactivator protein p300 (or the homologous CREB binding protein, CBP) (human) (UniProt Q09472). As to the kind of experiment: cell-based or functional assay.
The target of assay [7] is p300-CH1 (cysteine-histidine rich 1 domain of human coactivator protein p300, amino acid residues 323-423) (human) (UniProt Q09472). Nature of the assay: fluorescence polarization competition: HBS 1 added to the preformed complex of p300-CH1 (300 nM) and Flu-HIF C-TAD (15 nM); displaced ligand: fluorescein-labeled HIF-1α C-TAD786-826.
Sequence of p300-CH1 (cysteine-histidine rich 1 domain of human coactivator protein p300, amino acid residues 323-423) (human) (Q09472 323-423 limits assumed): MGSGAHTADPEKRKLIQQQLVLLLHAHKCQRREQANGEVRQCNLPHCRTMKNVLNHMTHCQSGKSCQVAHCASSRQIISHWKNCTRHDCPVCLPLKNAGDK

Sequence of coactivator protein p300 (or the homologous CREB binding protein, CBP) (human) (Q09472 2-2414 limits assumed): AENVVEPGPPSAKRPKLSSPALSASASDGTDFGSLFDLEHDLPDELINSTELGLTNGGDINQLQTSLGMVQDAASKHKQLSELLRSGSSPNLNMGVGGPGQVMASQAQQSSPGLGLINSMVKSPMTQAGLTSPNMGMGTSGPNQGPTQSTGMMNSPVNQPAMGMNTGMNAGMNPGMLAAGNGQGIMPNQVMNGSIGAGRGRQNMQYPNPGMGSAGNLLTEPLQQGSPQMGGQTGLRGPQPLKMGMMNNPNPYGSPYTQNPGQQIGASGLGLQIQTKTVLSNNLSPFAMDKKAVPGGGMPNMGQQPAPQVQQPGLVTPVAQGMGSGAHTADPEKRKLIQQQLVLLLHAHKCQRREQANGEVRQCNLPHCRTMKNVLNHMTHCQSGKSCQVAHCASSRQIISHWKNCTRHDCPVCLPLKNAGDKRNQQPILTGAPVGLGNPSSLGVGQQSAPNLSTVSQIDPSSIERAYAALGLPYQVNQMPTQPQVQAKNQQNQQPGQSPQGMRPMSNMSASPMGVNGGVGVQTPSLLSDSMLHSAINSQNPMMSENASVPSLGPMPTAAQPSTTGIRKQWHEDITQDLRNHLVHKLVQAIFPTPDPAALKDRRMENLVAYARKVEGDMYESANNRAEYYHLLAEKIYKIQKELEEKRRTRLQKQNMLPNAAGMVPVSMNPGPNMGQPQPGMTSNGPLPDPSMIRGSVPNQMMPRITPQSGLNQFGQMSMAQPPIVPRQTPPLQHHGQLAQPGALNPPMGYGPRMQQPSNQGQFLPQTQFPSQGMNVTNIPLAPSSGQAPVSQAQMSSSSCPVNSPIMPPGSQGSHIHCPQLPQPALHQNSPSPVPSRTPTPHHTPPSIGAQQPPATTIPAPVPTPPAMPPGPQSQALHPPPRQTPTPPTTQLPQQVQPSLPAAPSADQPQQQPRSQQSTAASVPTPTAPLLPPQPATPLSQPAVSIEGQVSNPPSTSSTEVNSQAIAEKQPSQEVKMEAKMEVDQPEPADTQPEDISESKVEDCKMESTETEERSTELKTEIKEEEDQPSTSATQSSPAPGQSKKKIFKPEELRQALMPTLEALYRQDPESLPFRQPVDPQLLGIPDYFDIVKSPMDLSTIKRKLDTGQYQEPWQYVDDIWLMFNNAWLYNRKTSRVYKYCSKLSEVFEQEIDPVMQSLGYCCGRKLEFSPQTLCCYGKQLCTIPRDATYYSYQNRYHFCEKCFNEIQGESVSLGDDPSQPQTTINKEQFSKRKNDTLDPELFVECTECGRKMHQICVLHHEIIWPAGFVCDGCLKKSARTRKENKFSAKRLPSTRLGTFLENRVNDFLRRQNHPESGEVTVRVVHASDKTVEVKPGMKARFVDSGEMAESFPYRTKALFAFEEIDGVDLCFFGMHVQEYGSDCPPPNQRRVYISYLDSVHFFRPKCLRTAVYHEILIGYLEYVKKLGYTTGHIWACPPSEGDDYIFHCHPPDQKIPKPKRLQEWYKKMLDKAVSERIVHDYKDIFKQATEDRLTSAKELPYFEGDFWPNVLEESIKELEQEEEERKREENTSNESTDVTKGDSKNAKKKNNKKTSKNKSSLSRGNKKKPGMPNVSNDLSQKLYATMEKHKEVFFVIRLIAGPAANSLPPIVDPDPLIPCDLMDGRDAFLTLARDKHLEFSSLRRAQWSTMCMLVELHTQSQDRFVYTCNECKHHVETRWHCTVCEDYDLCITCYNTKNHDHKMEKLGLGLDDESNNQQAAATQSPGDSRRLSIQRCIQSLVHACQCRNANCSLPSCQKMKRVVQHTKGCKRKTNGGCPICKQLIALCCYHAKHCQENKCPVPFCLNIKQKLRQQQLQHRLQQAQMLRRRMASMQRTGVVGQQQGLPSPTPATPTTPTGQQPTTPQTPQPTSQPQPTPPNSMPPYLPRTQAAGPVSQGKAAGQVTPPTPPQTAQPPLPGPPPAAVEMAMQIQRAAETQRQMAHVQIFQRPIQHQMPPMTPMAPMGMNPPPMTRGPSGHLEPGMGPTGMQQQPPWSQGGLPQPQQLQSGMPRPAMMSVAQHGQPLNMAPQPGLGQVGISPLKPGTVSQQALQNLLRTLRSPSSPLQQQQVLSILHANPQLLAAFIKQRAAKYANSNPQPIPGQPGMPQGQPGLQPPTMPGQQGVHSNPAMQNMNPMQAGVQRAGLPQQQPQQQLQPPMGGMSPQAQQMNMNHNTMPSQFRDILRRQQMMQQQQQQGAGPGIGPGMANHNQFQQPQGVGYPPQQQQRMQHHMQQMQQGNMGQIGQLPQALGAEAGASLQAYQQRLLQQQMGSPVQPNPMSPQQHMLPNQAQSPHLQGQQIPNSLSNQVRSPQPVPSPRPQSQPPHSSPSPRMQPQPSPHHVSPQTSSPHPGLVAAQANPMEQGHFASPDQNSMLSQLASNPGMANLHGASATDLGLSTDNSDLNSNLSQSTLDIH
Sequence of coactivator protein p300 (or the homologous CREB binding protein, CBP) (human), Q09472 (Q09472 2-2414 limits assumed): as above
Sequence of p300-CH1 (cysteine-histidine rich 1 domain of human coactivator protein p300, amino acid residues 323-423) (human), Q09472 (Q09472 323-423 limits assumed): as the sequence (Q09472 323-423 limits assumed) above

By Kd is commonly meant a measure of binding affinity in units of concentration. A higher Kd goes with weaker binding. In the case of ELARALDQ (modifications not checked) [Peptide 3], in assay [1], the Kd worked out at 6.06 µM. This molecule also gave a downregulation of SLC2A1 and LOX expression, qRT-PCR, hypoxic HeLa cells in assay [2] of 25%.

B1: HBS 1 (peptide)
chain: {code X}-ELARALDQ-NH2
modifications: not fully specified (residue 3, bridges); reading uncertain; also: hydrogen bond surrogate constraint, places not given here
As usually defined, the Ki is the dissociation constant of the complex between target and ligand, obtained from inhibition or displacement. Lower therefore signals a stronger hold on the target. The molecule B1 registered a fold increase in binding affinity over peptide 3 in assay [3] of 9 fold. Moreover, in assay [4], the Kd was 690 nM. For the same molecule, in assay [5], the Ki came out at 3.5 µM. In assay [6], this molecule yielded an expression levels of VEGF, qRT-PCR, hypoxic HeLa cells (% reduction at 10 µM) of 50; an expression levels of VEGF, qRT-PCR, hypoxic HeLa cells (% reduction at 50 µM) above 60; an inhibition of SLC2A1 (GLUT1) expression, qRT-PCR, hypoxic HeLa cells of 50 to 60%; a luciferase expression, HRE-luciferase reporter in MDA-MB-231-HRE-Luc cells under hypoxia (% reduction at 50 µM) of 25. The IC50 (read off the curve) in assay [7] amounted to 10 µM.
